Article PMC4442525

Key:
Test in all cases: pHLA tetramer staining of transfected HEK293T cells
[1] = biological target: HLA-B*57:01-LF9 A8 tetramer; conditions: parent: est. 57; read off a plot
[2] = biological target: HLA-B*57:01-LF9 L8 tetramer; conditions: parent: est. 58; read off a plot
[3] = biological target: HLA-B*57:01-TW10 T3N tetramer; conditions: read off a plot; for response: parent: est. 19, scale: relative to HLA-B*57:01-TW10 binding to KIR3DL1*001; for percent of parent (normalized to *001 (=100)): parent: est. 100
[4] = biological target: HLA-B*57:01-TW10 tetramer; conditions: parent: est. 100, read off a plot; for response: scale: relative to HLA-B*57:01-TW10 binding to KIR3DL1*001

Substance | response [1] | response [2] | response [3] | percent of parent (normalized to *001 (=100)) [3] | percent of parent (normalized to *001 (=100)) [4] | response [4]
FLAG-tagged KIR3DL1*001 (from UniProt P43629) G138W | 40 | 23 | 10 | 44 | – | –
FLAG-tagged KIR3DL1*001 (from UniProt P43629) L166R | 9 | 5 | 8 | 36 | 48 | 48
FLAG-tagged KIR3DL1*001 (from UniProt P43629) P163S | 45 | – | 9 | 41 | 97 | 97
FLAG-tagged KIR3DL1*001 (from UniProt P43629) P199L | 70 | – | – | – | 190 | 190
